Measurements reported in the nanobody polyreactivity screen of Harvey et al. (2022).

Assay: yeast display, Sf9 membrane polyspecificity reagent, FACS + sequencing; frameworks hold sequencing errors
Outline: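 Nanobodies came from a synthetic yeast display library in Saccharomyces cerevisiae BJ5465, induced with galactose for 36–48 hours and stained for 1 hour at 4 °C with 10% biotinylated, detergent-solubilized Sf9 membrane reagent. Cells were enriched on streptavidin microbeads and then FACS-sorted, with low and high (top ~1%) gates set on anti-HA fluorescence for expression and streptavidin fluorescence for reagent binding. Each polyreactivity label reflects the gate a clone came from. Genes were amplified by colony PCR, sequenced by MiSeq 2 × 250 and filtered by CDR length.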

Sequence	polyreactivity (PSR sort gate)
QVQLVESGGGLVQAGGSLRLSCAASGSTFRTYAMVWYRQAPGKERELVAAIRSRGGSTYYADSVKGRFTISRDNAKNTVYLQMNSLKPEDTAVYYCNAVPRWSYVDEDSWGQGTQVTVSS	high polyreactivity
QVQLVESGGGLVQAGRTLRLSCAASGSTFSVYGMVWYRQAPGKERELVAINIIGGSTYYADSVKGRFTISRDNAKYTVYLQMNSLKPEDTAVFYCAADSFPSEFDYWGQGTQVTVSS	low polyreactivity
QVQLVESGGGLVQAGGSLRLSCAASGIIFTGNAMGWYIQAPGKERELVAAITSGDTTNYADSVKGRFTISRDNAKNTVYLQMNSLKPEDTAVYYCAKELQVRQAGDYWGQGTQVTVSS	low polyreactivity
QVQLVESGGGLVQAGGSLRLSCAASGSIFYGNTMGWYRQAPGKERELVAGITRGGGSTYYADSVKGRFTISRDNAKNTVYLQMNSLKPEDTAVYYCAATFPYHDGDYWGQGTQVTVSS	low polyreactivity
QVQLVESGGGLVQAGGSLRLSCAASGSIFARYAMGWYRQAPGKERELVAAISRNGGSTYYADSVKGRFTISRDNAKNTVYLQMNSLKPEDTAVYYCAATQVGHYRIYDYWGQGTQVTVSS	low polyreactivity
QVQLVESGGGLVQAGGSLRLSCASSGLISRRNAMGWYRQAPGKERELVAAISTGSSTNYADSVKGRFTISRDNAKNTVYLQMNSLKPEDTAVYYCAATQYWWSTLGIRDDYWGQGTQVTVSS	low polyreactivity
QVQLVESGGGLVQAGGSLRLSCAASGFTFGNYAMGWYRQAQGKERELVDAISGSGGSTYYADSVKGRFTISRYNAKNTVYLQMNSLKPEDTAVYYCAARYWVTYWPDYYYWGQGTQVTVPS	high polyreactivity
QVQLVESGGGLVQAGGSLRLSCDASGRNFRRNAMGWYRQAPGKERELVAAITGGGSTNYADSVKGRFTISRDNAKNTVYLQMNSLKPEDTAVYYCAARRYGVRTYRFDSWGQGTQVTVSS	high polyreactivity
QVQLVESGGGLVQAGGSLRLSCAASGRIFYTNAMGWYRQAPGKERELVAAIDYSDSTTYYADSVKGRFTISRDNAKNTVYLQMNSLKPEDTAVYYCAAESYLYTVTFEYWGQGTQVTVSS	high polyreactivity
QVQLVESGGGLVQAGGSLRLSCAASGSIFYVYAMGGYRQAPGKERELVAAITSGSSTNYADSVKGRFTISRDNAKNTVYLQMNSLKPEDTAVYYCAASFRDDFPQRLDYWGQGTQVTVSS	low polyreactivity
QVQLVESGGGLVQAGGSLRLSCAASGSTFGPYAMGWYRQAPGKERELVATIRGSGATTYYADSVKGRFTISRDNAKNTVYLQMHSLKPEDTAVYYCATAYFSGWYNRYGRATSYDYWGQGTQVTVSS	high polyreactivity
QVELVESGGGLVQAGGSLRLSCAASGFTFVSYAMGWYRQAPGKEREFVATISKRGGSTYYADSVKGRFTISRDNAKNTVYLQMNSLKPEDTAVYYCAVRYPYYSYRAKLGYCGQGTQVTVSS	high polyreactivity
QVQLVESGGGLVQAGGSLRLSCAASGRTFWSNAMGWYRQAPGKERELVAAISGGARTNYADSVKGRFTISRDNAKNTVYLQMNSLKPEDTAVYYCAATPRYWQSRYDYWGQGTQVTVSS	high polyreactivity
QVQLVESGGGLVQAGGSLRLSCAASGRTFRSYAMGWYRQAPGKERELVATITRGSSTNYADSGKGRFTISRDNAKNTVYLQMNSLKPEDTAVYYCNADGKPPYISWLYDYWGQGTQVTVSS	low polyreactivity
LVQLQESGGGLVQAGGSLRLSCAASGTNSPGGYMGWYRKAPGKERELVASINVGGSTNYADSVKGRFTISRDNAKNTVYLQMNSLKPEDNAVYFCAVWGRNRLQLSYWGQGTQVTVSS	low polyreactivity
QVQLVESGGGLVQAGGSLRLSCAASGNIFGLNAMGWYTQAPGKEREFVAAITKTGGSTYYADSVKGRFTISRDNAKNTVYLQMNSLKPEDTAVYYCAARGLPRGYPYEYGYWGQVTQVTVSS	high polyreactivity
QVQLVESGGGLVQAGGSLRLSCAASGLTFYYYAMGWSRQAPGKERELVAAISRSGGSTYYADSVKGRFTISRDNAKNTVYLQINSLKPEDTAVYYCAAREPYEGQRYYYEYYYWGQGTQVTVSS	high polyreactivity
QVQLVESGGGLVQAGCSLRLSCAASGSTFPYNTMGWYRQAPGKERELVAAITSSAGSTYYADSVKGRFTISRDNAKNTVYLQMNSLKPDDTAVYYCAADYIVWKGSNSYYYAGYYYWGQGTQVTVSS	low polyreactivity
QVQLVESGGGLVQAGGSLRLSCAASGSILDGNNMGWSRQAPGKERELVAAISWRGGSTYYADSVKGRFTISRDNAKNTVYLQMNSLKPEDTAVYYCNTYHPYWGSGFDYWGQGTQVTVSS	low polyreactivity
QVQLVDSGGGLVQAGGSLRLTCAASGKIFVPNAMGWNRQAPGKERELVAAIRRGGSTNYADSVKGRFTISRDNAKNSVYLQMNSLKPEDTAVYYCAKSRVSFTDLVGYYWGQGTQVTVSS	low polyreactivity
QVQLEESGGGIVQAGGSLRLSSAASGRIYTPNAMGSYRQAPGKERELVAAITWSGGSTYYADSVKGRFTISRDNAKNTVYLQMNRLKPEDTAVYYCAVRYSRNLMYYWGQATQVTVSS	high polyreactivity
QVQLVESGGGVVQAGGSLRLICAASGSTFGVYAMGWYRQAPGKERELFASISESGGNTYYADSVKGRFTISRDNAKNTVYLQMNSLKPDDTAVYYCNTDVVDVHYIQAYYWGQVTQVTVSS	low polyreactivity

Sequence	polyreactivity (PSR sort gate)
QVQLVESGGGLVQAGGSLRLSCAASGRNFWLNAMGWYRPEPGKERELVATISRGGSTNYADSVKGRFTISRDNAKNTVYLQMNSLKPEDTAVYYCAARPYSYYWNSELDYWGQGTQVTVSS	high polyreactivity
QVQLVESGGGLVQAGGSLRLSCAASGITFVDNAMGWYRQAPGKERELVAAISFSGDTTYYADSVKGRFTISRDNEKNTVYLQMNSLKPEDTAVYYCAAEYYYTWVYQYWEMDYWGQGTQVTVSS	low polyreactivity
QVQLVESGGGLVQAGGSLRLSCAASGLTLGRYARGWYRQAPGKERELVAVITGGGSTNYADSVKGRFTISRDNSKNTVYLQMNSLKPEDTAVYYCAAARSPYKYSYWGQGTQVTVSS	high polyreactivity
QVQLVESGGGLVQAGGSLRLSCAASGRTFYPNAMGWYRQAPGKERELVAAITWRSGSTYYADSVKGRFTISRDNAKNTVYLQMNSLKPEDTAVYYCNADSDYPYYPGKFDYWGQGTQVTVSS	low polyreactivity
QDQLVESGGGLVQAGGRLRLSCAASGFTFHKYAMGWSRPAPGKDRELVAAITSSGGSTYYADSVKGRFTISRDYAKNTVYLQMTSLKPEDTAVYYCNARGGGRKSYDYWGQGTQVTVSS	high polyreactivity
QVQLVESGGGLVQAGGSLRIRCAASGRIFNQYAMGWYRQAPGKERELVASITQRGGRTYYADSVKGRFTISRDNAKNTVYLQMNSLKPEDTAVYYCAKQCYYVTARTGYDYWGQGTQVTVSS	high polyreactivity
QVQLQESGGGLVQAGGSLRLSCAASGTISDRAGMGWYRQAPAKNAIVATIDRGTNTNYADSVKGRFTISRDNAKNTVYLQMNSLKPEDTAVYNCAAVGRYYIYLDYWGQGTQVTVSS	low polyreactivity
QVQLVESGGGLVQAGGSLRLSCAPSGRTFYPNVMGWSRQAPGKERELVAAITSGGSTYYADSVKGRFTISRDNAKNTVYLQMNSLKPEDTAVYYCAVAYAGGGSRKYDYWGQGTQVTVSS	low polyreactivity
QVQLVETGGGLVQAGGSLRLSCAASGRISYDYAMGWYRPPPGKERELVAAITTGGNTYYADSVKGRFTISRDNAKNTVYLQLNRLKPEDTAVYYCSVRGPYVRYNRYNYVYWGQGTQVTVSS	low polyreactivity
QVQLVESGGGIVQAGGSLRLSCAASGLTFPQYAMGWYTQAPGKERELVAAISWNGGITYYADSVKGRFTISRDYAKNTVYLQMNSLKPEDTAVYYCNDDGGYGDYYYWGQGTQVTVSS	low polyreactivity
QVQLVESGGGLVQAGGSLRLSCAASGFIFYYNAMGWYRQAPGKERELVARISSGSGTYYADSVKGRFTISRDNAKNTVYLQMNSLKPEDTAVYYCAARYPRGAMYYWGQGTQVTVSS	low polyreactivity
QVQLVESGGGLVQAGGSLRLSCAASGFIFEYNTMGWYRQAPGKERELVAAISRRGGSTYYADSVKGRFTISRDNAKNTVYLQMKSLKPEDTAVYYCATDPGARVHYPTGDYWGQGTQVTVSS	high polyreactivity
QVQLVESGGGLVQAGGSLRLSCAASGSTLKLYVMGWYRQAPGKERELVAAISYSGGSTNYADSVKGRFTISRDNAKNTVYLQMNSLKPEDTAVYYCAAAGYKWYYKYYYWGQGTQVTVSS	high polyreactivity
QVQLVESGGGLVQAGGSLRLSCAASGFIFGHNAMGWYRQAPGKERELVASISKSGGDTYYADSVKGRFTISRDNAKNTVYLQMNSLKPEDTAVYYCAAQGAVFEILDYWGQGTQVTVSS	low polyreactivity
QVQLVESGGGLVQAGGSLRISCAATGIIFIGYAMGWYRQAPGKERELVAAITRSGVSTYYADSVKGRFTISRDNAKNTVYLQMNSLKPEDTAVYYCAARYFGEKYSHGFDYWGQGTQVTVSS	low polyreactivity
QVQLVESGGGLVQAGGRLRLSCAASGRIFRRYAMGWYRQAPGKERELVAAITSSGTSTHYADSVKGRFTISRDNAKNTVYLQMNSLKPEDTAVYYCAARYSTYPWYNYCGQGTQVTVSS	high polyreactivity
QVQLVESGGGLVQAGGSLRLSCAASGSIIGGYVMGWYRQAPGKERELVAAITSRVGSTYYADSVKGRFTISRDNAKNTVYLQMNSLKPEDTAVYYCAVVFAKRAWSRYDYWGQGTQVTVSS	high polyreactivity
QVQLVESGGGLVQAGVSLRLSCAASGSTFPVNTMGWYRQAPGKERELVAAISWSGGRTYYADSVKGRFTISRDNAKNNVYLQMNILKPEDTAVYYCAADIGSYYYYTYYYWGQGSQVTVSS	high polyreactivity
QVQLVESGGGLVQAGGSLRLSCDASGRTFYVYAMGWYRQAPGKERELVAAISSSGGSTYYADSVKGRFTISRDNAKNTVYLQMNSLKPEDTAVYYCAVVTPRYYGDTKYDYWGQGTQVTVSS	high polyreactivity
QVQLVESGGGFVQAGGSLRLICAAYRSIFSLYAMGWYRQAPGKERELVAHISSDGSTNYADSVKGRFTISRDNAKNTVYLQMNSLKPEDTAVYYCAKKPSSARYFTIGFDYWGQGTQVTVSS	low polyreactivity
QVQLVESGGGLVQAGGSLRLSCAASGFTFIRYAMGWYRQAPGKERELVAAIRGTGTSTYYADSVKGRFTISRDNAKNTVYLQMNSLKPEDTAVYYCNKVAGRSPYTRYDYWGQGTQVTVSS	low polyreactivity
